According to US20020147170A1 (priority 2000, published 2002):

How the values were obtained:
[1] = molecular target: Asn150Ala mutant rat mu opioid receptor (rat) (UniProt P33535); assay: cell-based or functional assay
[2] = molecular target: wild-type rat mu opioid receptor (rat); assay: cell-based or functional assay
rat mu opioid receptor [3] = molecular target: T1, rat mu opioid receptor (Rattus norvegicus, UniProt P33535, N150A); assay: SRE-Luc/Gq5i luciferase reporter assay in HEK293 cells; format: cell-based; conditions: see Example 1
T1 construct: expressed in transfected cells; host or cells: HEK293 (stated for the SRE-Luc/Gq5i assay); receptor gene in pcDNA1
Text: (§1) A positive assay for Gαi coupling (i.e., one that yields an increase in luciferase activity upon receptor activation, instead of a negative assay, one that yields a decrease in luciferase activity upon receptor activation), provides a detectable output signal and less interassay variation. It was hypothesized that Gαi coupling could be detected by altering the signaling pathway generated by Gαi coupled receptors. A chimeric G protein (Gqi5, Broach and Thorner, Nature 384 (Suppl.): 14-16 (1996)) that contains the entire Gαq protein having five C-terminal amino acids from Gαi attached to the C-terminus of Gαq has been generated. This chimeric G protein is recognized as Gαi by Gαi coupled receptors, but switches the receptor induced signaling from Gαi to Gαq. This allows Gαi receptor coupling to be detected using a positive assay by use of the Gαq responsive SMS-Luc or SRE-Luc construct (Stratagene, La Jolla, Calif.). SMS and SRE preferably respond to Gαq mediated inositol and calcium production. Moreover, detection can be carried out in the absence of forskolin pre-stimulation of cells.
(§2) Reagents & Solutions: The cell culture media used in the assays described below was Gibco BRL #12100-046. This media was made according to manufacturer's recipe, pH adjusted to 7.2, filtered (0.22 micron pore), and supplemented with 1% Pen/Strep (Gibco #15140-122; 100% penicillin G 10,000 units/ml, and streptomycin 10,000 μg/ml) and 10% fetal bovine serum. Cell culture media lacking 10% fetal bovine serum was also generated. DNA used in the transfection experiments was purified and quantitated by measuring the absorbance at OD260. A LucLite Luciferase Assay Kit (Packard) was used to quantitate luciferase activity. Transfections were carried out using LipofectAMINE Reagent (Gibco #18324-012).
(§3) The rat mu opioid receptor is a Gαi coupled receptor. Therefore we chose to use the Gq5i reporter system, described in detail above (Broach and Thorner, supra), which switches the signaling pathway from Gαi to Gαq for reliable positive readout. HEK293 cells were transfected with the reporter construct SRE-Luc, an expression vector containing nucleic acid encoding Gq5i (Broach and Thorner, supra), and an expression vector containing nucleic acid encoding either the wild-type or the Asn150Ala mutant rat mu opioid receptor. Basal and ligand-stimulated luciferase activity was measured. The ligand used in this assay was [D—Ala^2—MePhe^4, Gly-ol^5]enkephalin] (DAMGO). As a negative control, HEK293 cells were transfected with pcDNA1 (empty vector DNA), SRE-Luc, and the expression vector containing nucleic acid encoding Gq5i (Broach and Thorner, supra).
(§4) The luciferase assay was carried out as follows. On day 1, HEK293 cells in a T75 flask were washed with 15 ml serum-free media (or PBS), trypsinized with 5 ml 0.05% trypsin-EDTA (Gibco #25300-062), incubated at 37° C. for 3 minutes at which time 6-7 ml complete HEK293 media (Gibco #12100-046) and 10% Fetal Bovine Serum (Intergen #1050-90) were added. Thereafter, cells were collected in 50 ml centrifuge tubes, pelleted at 800-900 rpm (RCF˜275), and resuspend in 20 ml complete media. The cells were counted using a haemocytometer and diluted to 85,000 cells/ml in complete media. Using a repeat pipettor or cell plater, 100 μl of cells were added to each well of a Primaria 96-well plate (Falcon #353872). Cells were then incubated at 37° C., 5% CO2 until use at 48 hours.
(§5) On day 3, cells were transfected using LipofectAMINE™ according to the manufacturer's protocol (Gibco #18324-012, Rockville, Md.).
(§6) On day 4, cells were stimulated as follows. Ligands for the receptor, either DAMGO or a non-peptide ligand (e.g., naloxone or naltrexone), were diluted to a desired concentration in serum-free media containing 0.15 mM PMSF (or other protease inhibitor(s)). […]

rat mu opioid receptor [4] = assay: as above; format: cell-based; conditions: SRE + Gq5i
Text: as §1, §2, §3, §4, §5, §6

rat mu opioid receptor [5] = molecular target: T1, rat mu opioid receptor; assay: CRE-Luc luciferase reporter assay with forskolin stimulation; format: cell-based; conditions: CRE-Luc, 0.5 μM or 2 μM forskolin
Text: The response element employed in this assay was the cAMP-response element (CRE), which is sensitive to Gαi mediated reductions in intracellular levels of cAMP. Signaling through the rat mu opioid receptor via Gαi inhibits adenylate cyclase, causing a decrease in intracellular cellular cAMP. Therefore, an increase in rat mu opioid receptor signaling induces a decrease in CRE mediated reporter activity.
Mutation induced Gαi-mediated decreases in intracellular cAMP were, prior to the present invention, more often measured by 1) stimulating cells with forskolin, which causes receptor-independent activation of adenylate cyclase and generates an intracellular pool of cAMP; 2) stimulating the cells with ligand; and 3) measuring the ligand-induced, receptor-dependent Gαi-mediated decrease in the intracellular cAMP pool (e.g., using a radioimmunoassay (e.g., New England Nuclear, Boston, Mass.)). […] Specifically, cells transfected with a CRE-Luc reporter construct (Stratagene, La Jolla, Calif.) and an expression vector encoding either a wild-type or a mutant rat mu opioid receptor were stimulated with 0.5 μM or 2 μM forskolin to increase the intracellular pool of cAMP. The basal (and ligand-induced) level of receptor activity was then measured using a standard luciferase assay (see FIG. 4). Coexpression of the receptor of interest with a luciferase reporter gene construct allows one to measure light emission as a readout for basal signaling.
This decrease in activity indicates an increase in the basal level activity of the mutant rat mu opioid receptor, because activation of the rat mu opioid receptor induces a decrease in CRE-mediated reporter activity (FIG. 4, compare 0.5 μM wild-type vs. 0.5 μM mutant and 2 μM wild-type vs. 2 μM mutant).

mu opioid receptor = assay: Luciferase activity on DAMGO titration (FIG. 15); format: cell-based, rat; conditions: DAMGO titrated onto cells
Experimental: Ligand (Damgo) was titrated onto the cells expressing either the mutant or the wild-type mu opioid receptor and the luciferase activity was measured to assess the sensitivity of the receptor to ligand stimulation.
It is important to note that the mu opioid receptor of the invention is also hypersensitive.

PTH receptor = conditions: COS-7 cells; cited from earlier work

Molecule: [D-Ala^2-MePhe^4, Gly-ol^5]enkephalin (peptide)
- Average Ligand Stimulated Activity (Light Emission) (light emission) [1]: 87000
- Average Ligand Stimulated Activity (Light Emission) (light emission) [2]: 87500

B1: Asn150Ala rat mu opioid receptor: rat mu opioid receptor (SEQ ID NO: 1) with Asn to Ala point mutation at position 150, expressed from pcDNA1 (protein)
chain: MDSSTGPGNTSDCSDPLAQASCSPAPGSWLNLSHVDGNQSDPCGLNRTGLGGNDSLCPQTGSPSMVTAITIMALYSIVCVVGLFGNFLVMYVIVRYTKMKTATNIYIFNLALADALATSTLPFQSVNYLMGTWPFGTILCKIVISIDYYAMFTSIFTLCTMSVDRYIAVCHPVKALDFRTPRNAKIVNVCNWILSSAIGLPVMFMATTKYRQGSIDCTLTFSHPTWYWENLLKICVFIFAFIMPVLIITVCYGLMILRLKSVRMLSGSKEKDRNLRRITRMVLVVVAVFIVCWTPIHIYVIIKALITIPETTFQTVSWHFCIALGYTNSCLNPVLYAFLDENFKRCFREFCIPTSSTIEQQNSTRVRQNTREHPSTANTVDRTNHQLENLEAETAPLP
- basal activity relative to the maximal level of ligand-stimulated second messenger signaling (rat mu opioid receptor [3]): exceeded 50%
- Average Ligand Stimulated Activity (Light Emission) (rat mu opioid receptor [4]; HEK293 cells, ligand DAMGO): 86,996
- Average Basal Activity (Light Emission) (rat mu opioid receptor [4]; HEK293 cells, no ligand): *56,498
- stimulation of basal level activity (rat mu opioid receptor [4]; mutant vs wild-type receptor, listed as Asn150Ala mutant mu opioid receptor): approximately 6.5 fold
- basal activity (forskolin-induced, no receptor stimulation) vs wild-type receptor (rat mu opioid receptor [5]): reduction in basal activity
- level of constitutive activity relative to ligand-stimulated activity of the wild-type receptor (rat mu opioid receptor [5]): 50%
- sensitivity of the receptor to ligand stimulation vs wild-type (mu opioid receptor; listed as Asn150Ala rat mutant mu opioid receptor): hypersensitivity
- sensitivity of the receptor to ligand stimulation vs wild-type (mu opioid receptor; listed as mutant receptor): responsive to a lower concentration of ligand than the wild-type receptor

B2: His223Arg: polymorphic constitutively active PTH receptor mutant from Jansen's metaphyseal chondrodysplasia patients (protein, UniProt Q03431 27-593, looked up, variant H223R)
Parathyroid …: DADDVMTKEEQIFLLHRAQAQCEKRLKEVLQRPASIMESDKGWTSASTSGKPRKDKASGKLYPESEEDKEAPTGSRYRGRPCLPEWDHILCWPLGAPGEVVAVPCPDYIYDFNHKGHAYRRCDRNGSWELVPGHNRTWANYSECVKFLTNETREREVFDRLGMIYTVGYSVSLASLTVAVLILAYFRRLHCTRNYIRMHLFLSFMLRAVSIFVKDAVLYSGATLDEAERLTEEELRAIAQAPPPPATAAAGYAGCRVAVTFFLYFLATNYYWILVEGLYLHSLIFMAFFSEKKYLWGFTVFGWGLPAVFVAVWVSVRATLANTGCWDLSSGNKKWIIQVPILASIVLNFILFINIVRVLATKLRETNAGRCDTRQQYRKLLKSTLVLMPLFGVHYIVFMATPYTEVSGTLWQVQMHYEMLFNSFQGFFVAIIYCFCNGEVQAEIKKSWSRWTLALDFKRKARSGSSSYSYGPMVSHTSVTNVGPRVGLGLPLSPRLLPTATTNGHPQLPGHAKPGTPALETLETTPPAMAAPKDDGFLNGSCSGLDEEASGPERPPALLQEEWETVM
- basal cyclic AMP accumulation vs cells expressing wild-type receptors (PTH receptor): four to six times higher

B3: Thr410Pro: polymorphic constitutively active PTH receptor missense mutant (protein, UniProt Q03431 27-593, looked up, variant T410P)
Parathyroid …: DADDVMTKEEQIFLLHRAQAQCEKRLKEVLQRPASIMESDKGWTSASTSGKPRKDKASGKLYPESEEDKEAPTGSRYRGRPCLPEWDHILCWPLGAPGEVVAVPCPDYIYDFNHKGHAYRRCDRNGSWELVPGHNRTWANYSECVKFLTNETREREVFDRLGMIYTVGYSVSLASLTVAVLILAYFRRLHCTRNYIHMHLFLSFMLRAVSIFVKDAVLYSGATLDEAERLTEEELRAIAQAPPPPATAAAGYAGCRVAVTFFLYFLATNYYWILVEGLYLHSLIFMAFFSEKKYLWGFTVFGWGLPAVFVAVWVSVRATLANTGCWDLSSGNKKWIIQVPILASIVLNFILFINIVRVLATKLRETNAGRCDTRQQYRKLLKSPLVLMPLFGVHYIVFMATPYTEVSGTLWQVQMHYEMLFNSFQGFFVAIIYCFCNGEVQAEIKKSWSRWTLALDFKRKARSGSSSYSYGPMVSHTSVTNVGPRVGLGLPLSPRLLPTATTNGHPQLPGHAKPGTPALETLETTPPAMAAPKDDGFLNGSCSGLDEEASGPERPPALLQEEWETVM
- basal cyclic AMP accumulation vs cells expressing wild-type receptors (PTH receptor): four to six times higher
